Assay: yeast display, Sf9 membrane polyspecificity reagent, FACS + sequencing; frameworks hold sequencing errors
Outline: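 Polyreactivity labels are assigned by the sorting gate from which each nanobody was recovered. The gates were low and high (top ~1%), set on anti-HA fluorescence for expression and streptavidin fluorescence for reagent binding. Before sorting, galactose-induced (36–48 hours) yeast display cells were stained for 1 hour at 4 °C with 10% biotinylated, detergent-solubilized Sf9 membrane reagent.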

Sequence | polyreactivity (PSR sort gate)
QGQLVESGGGLVQAGVSLRLSCAASGSTFRDYAMGWYRQAPGKERELVASITSGGSTNYADSVKGRFTISRDNAKNTVYLQMNSLKPEDTAVYYCGAESMPRWFVRYDYWGQGTQVTVSS | low polyreactivity
QGQLVESGGGLVQAVGSLRLSCAASGITLRIYAMGWYRQAPGKEREMVAGITSGGSTNYADSVKGRFTLSRDNAKNTVYLQMNSLKPEDTAVYYCAARQVRTSKLHMGYWGQGTQVTVSS | low polyreactivity
QGQLVESGGRLVQAGGSLRLSCAASGRIFGWYDMGWYREEPGKERELVAAINWSGGSTYYADSVKGRFTISRDNEKNTFYLQMNCLKPEDTAVYYCAADVAQVGYQVGVSEIYPGYEYWGQGTQVNVSS | low polyreactivity
QGQLVESWGGLVQAGGSLRLSCAASGRIFYGYVMGWYREAPGKERELVAAINHSGTSTYYADSVKGRFTISRDIAKNTVYLQMNIMKPEDTAVYYCAADQVGWTYDYWGQGTQVTVSS | low polyreactivity
QGQLVESWGGLVQAGGSLRLSCAASGSTFVFNAMGWYRQAPGKERELVAAISIDGSTNYADSVKGRFTISRDNAKNTVYLQMNSLEPEDTAVYYCNAKRYGFFYWQGDYWGQGTQVTVSS | low polyreactivity
QGQLVETGGGLVQAGGSLRLSCGASGSTFLWNTIGWYRQGPRKERELVAEIRTSGGGTYYADSVKGRFTISRDNAKNTVYLQMNSLKPEDTEVYYCYADPKWEMGSWGQGTQVTVSS | low polyreactivity
QGQRVESGGGLVQAGGSLRLSCAASGFIFAHNAMGWYRPAPGTETEFVAAISANTGNTYYADSVKGRFTISRDNAKNTVYLQMNSLKPEDTAVYYCRSFYYWGQGTQVTVSS | high polyreactivity
QGQRVESGGGLVQAGGSLRLSCAASGSTFEDNAMGWSRPAPGKERELVAAITTGGGSTYYADSVKGRFTISRDNAKNTVYLQMNSLKPEDTAVYYCAADWSYYYSRNYESDYWGQGTQVTVSS | low polyreactivity
QHQLGESGGGLVQAGGRLRLSCAASGRIFHVSAMGWYREAPGKERELVAAISSGDRTYYADSGKGRFIISRDNAKNSVYLQLNSLKPEDTAVYYCWRYPAAESNYWGQGTQVTVSS | low polyreactivity
QHQLVESGGGLVQAGGSLRLSCAASGSIFWRYVMGWYRPAPGKERELVAAISSGGGITYYADSVTGRFTISRDTAKNTLYLQMNSLKPEDTAVYYCAAYGSLSPKYGYWGQGTQVNVSS | high polyreactivity
QLHLVESGGGLVQAGGSLRLSCAASGYIFNYNAMGWSRQAPGTQREFVAAISQGGGSTYYADSVKGRFTISRDNSKYTVYLQMNRLKPEDTAVYYCAADYRSGYREMDYWGQGTQVTVSS | low polyreactivity
QLHLVESGGGLVQAGGSLRLSCAGSGFTFGHSAMGWYRQAPGNDRELVASITWSGGSTYYADSVKGRFTISRDNAKNTVYLQMNSRKPEDTAVYYCNAQERRVRDYDYWGQGTQVTVSS | low polyreactivity
QLQHVESGGGLVQAGGSLRLSCAASGRTFWYYAMGWYRQAPGTESELVAAISRGGGSTYYADSVKGSFTISRDTAKNTVYLQMNILKPEDTAVYYCAVASDYRGYYYWGQGTQVTVSS | high polyreactivity
QLQHVESRRGLVQAGGSLRLSCAASGLTFVGYAMGWYRQAPGKERELGAAISGVGTTNYADSVKGRFTISRDNAKNTVYFQMNSLKPEDSAVYYCAKAPYPVPYGLYDYWGQGTQVTVSS | low polyreactivity
QLQIVESGGGLVQAGGSLRLISAASGSTLAYYAMGWYRQEPGKERELVAAINWRTYYADSVKGRFTISRDNAMNTLYLQMNSLKPEDTAVYYCAAGYYLNKFYYWGQGTQVTVSS | high polyreactivity
QLQLDESRGGLVQAGRSLRLSCAASGGNFRYYAMGWYRQAPGKERELDAAISSGGSTNYADSVKVRFTISRDNAKNTVYLQMNSLKREDTAVYYCAADVIYYYAYYTYDYWGQGTQVTVSS | low polyreactivity
QLQLEESCGGLVQAGGSLRLSCAATGFIFGKYAMGWYRQAPGKQREFVAAITRSGGSTYYADSVKGRVTISRDNAKNTVFLQMFCLKPEDTAVYYCNARISERGWRYYYWGHGTQVTVSS | high polyreactivity
QLQLEESGGGLVQAGGSLRLSCAAYGSIYYYNGMGWYRQAPAKERELVAAISSSGGRTYYADSVKGRFTISRDNENNTVYLQMNSLKPEDPAVYYCYDSGFGKTGFGYDYWGQGTQVTVSS | low polyreactivity
QLQLEESGGGLVQAGGSLRLSSAASGRTFYYYAIGWYRQAPGKERELVAAISRGGSTYYADSVKGRFTISRDNAKITVYLQMHSLKPEDTAVYYCAAVLRPDRYDYWGQGTQVTVSS | high polyreactivity
QLQLHESGGVQAGGSLRLSCAAGGYISRSDVMGWYRQAPGKERELVATINNGTITYYADSVKGRFNISRDNAKNTVYLQMNSLKREDTAVHYWAVVQSDCDSLYYWGQGTQVTVSS | low polyreactivity
QLQLQESGGGLVLAGGSLRLSCSASGNISVYGSMCWYRQAPGKEREFVATIDPGTNTNYADSVKDRFTISRDNAKNTVYLQMNSLKPEDTAVSYCAVEAGSDWPYRYRGQGTQVTVSS | low polyreactivity

Sequence | polyreactivity (PSR sort gate)
QLQLQESGGGLVQSGGSLRLSCAASGTISFTRDMGWYRQAPGKEREFVASIDRGASTYYADSVKGRFTISRDNAKNTVYLQMNSLKPEDTAVYYRAFIAPFYSSFAYWGQGTQVTVSS | high polyreactivity
QLQLVESGGALVQAGGSLRLSCAASGFTFSRNVMGWYRQAPGKERELVAAISSGSTYYADSVKGRFTISRDNAKKTVYLQMNSLKPEDTAVYYCAKRGRLRNYDYWGQGTKVTVSS | high polyreactivity
QLQLVESGGGLVQAGGILRLSCAASGLIFAEYAMGWYRQAPAKERELVARITSGGSTDYADSVKGRFTISRDNAKNTVYLQMNSLKPEDTAVYYCAARYYSQDKNASTASDFDYWGQGTQVTVSS | low polyreactivity
QLQLVESGGGLVQAGGSLRLSCAASGFIFHRNAMGWYRQAPGKERELVAAISGSGGSTYYADSVNGRFTISRDNAKNTVYLQMNSLKPEDTAVYYCAKRGRSTYGYDYWGQGTQVNVSS | high polyreactivity
QLQLVESGGGLVQAGGSLRLSCAASGFIFYYNVMGWYRQAPGKERELVAAIRYRGTITYYADSVKGRFTISRDIAKNTVYLQMNSLKPEDTAVYYCARRQRNYYRSSPGGDYWGQGTQVTVSS | low polyreactivity
QLQLVESGGGLVQAGGSLRLSCAASGFISWCNAMGWYRQAPGKERELVAAISWRDARTYYADSVKGRFTLSRDNAKNTVYLQMNSLKPEDTAVYYCNAVTAYVSRYLRGYRWFDYWGQGTQVTVSS | low polyreactivity
QLQLVESGGGLVQAGGSLRLSCAASGFTFRWNGMGWYRQAPGKERELVPSISSTGGSTYYADSVKGRFTISRDNAKNTVYLQMNSLKPEDTAVYYCNAVVTYHYSVTSVGSRFDYWGQGTQVTVSS | high polyreactivity
QLQLVESGGGLVQAGGSLRLSCAASGFTFYYNALGWYRQAPGKDRELVSSITRSGGRTYYAESVKGRFTISRENAKNTVYLQKNSLKPEDTAVYFCARRYPGGYYWGQGTQVTVSS | high polyreactivity
QLQLVESGGGLVQAGGSLRLSCAASGIIFIYNGMGWYRQAPGKERELVATINWSGGNTYYADSVKGRFTISRDNAKNTVYLQMNSLKPEDTAVYYCAVRGSRYWGYDYWGQGTQVTVSS | low polyreactivity
QLQLVESGGGLVQAGGSLRLSCAASGITFPFYDMGWYRQAPGKEREFVAAISWSAGNTYYADSVKGRFTISRDNAKNTVYLQMNSLKPEDTAVYYCAAYGPSYEEDYWGQGTQVTVSS | high polyreactivity
QLQLVESGGGLVQAGGSLRLSCAASGLTIWRYAKGCYRQAPGKEREFVATISQNGGRTYYADSVKGRFTISRDNAKNSVYLQMNSLKPEDTAVYYCAADDWRWGYDYWVQGTQVTVSS | high polyreactivity
QLQLVESGGGLVQAGGSLRLSCAASGNIFNYYAMGWYRQATGKERELVAAIRSGARTSYADSVKGRFTISRDNAKNTVYLQMNSLKPEDTAVYYCAASRFRWVQRDDYWGQGTQVTVSS | high polyreactivity
QLQLVESGGGLVQAGGSLRLSCAASGNNIVFYAMGRYRQAPGKERELVAAMTSGGSTNYADSVKGRFTISRDNAKNTVYLQMNSLKPEATAVYYCAARQWFAHRRWGGSRYDYWGQGTQGTVSS | low polyreactivity
QLQLVESGGGLVQAGGSLRLSCAASGRIRYIAIGWYRQAPWKERELVAAITSSGGSTYYADSVKGRFTISRDNAKYTVDLQMNRLKPEDTAVYYCNAVASLSVDYWGQGTQVTVSS | high polyreactivity
QLQLVESGGGLVQAGGSLRLSCAASGRIVKYDMGWYRQAPGKERELVAAISGSGGTTNYADSVKGRFTISRDNAKNTVYLKLNSLKPEETAVYYCAASRPRPPSSRRMDYWGQGTQVTVSS | high polyreactivity
QLQLVESGGGLVQAGGSLRLSCAASGRTFFGYAMGWYSQAPGKERELVATIDGSDGSTFYADSGKGRFTISRDNAKNTVYLQMNSLKPEDTAVYYCAAENFWQTKEYDYWGQGTQVTVSS | low polyreactivity
QLQLVESGGGLVQAGGSLRLSCAASGRTFRINTMGWYRPAPGKERELVATITGSGGSTYYADSVKGRFTISRDNAKNTVYLQMNSLKPEDTAVYYCAAVGDQNEYDYWGQGTQVTVSS | low polyreactivity
QLQLVESGGGLVQAGGSLRLSCAASGRTFVSIALGWYRQAPGKERELFAGINWTDDSTYYADSVKGRFTISRDNAKHSVYLQMNCLKPEDTAVYYCAADQQDGLWDYQDWYDYWGPGTQVTVSS | low polyreactivity
QLQLVESGGGLVQAGGSLRLSCAASGRTFWYYTMGWYRQAPGKERELVAAISSGGRTNYADSVKGRFTISLDNAKNTVYLQMNSLKPEDTAVYYCATSRYYKYVERDYWGQGTLVTVSS | high polyreactivity
QLQLVESGGGLVQAGGSLRLSCAASGRTFYVNAMGWYRQAHGKERELVARISSSGITYYAVSVKGRFTISRDNAKNTVYLQMNSLKPEDTAVYYCAAGPWFYYWGQGTQVTVSS | low polyreactivity
